Laboratory results taken from article PMC9911985 (Journal of Molecular Biology, 2023).
Where no end group is shown, it is not given here. MBP = not defined here

Molecular target: nsp7 with a C-terminal strep-tag II (nsp7-strep), SARS-CoV-2 nonstructural protein 7 (SARS-CoV-2, UniProt P0DTD1 3860-3942)
Test: pull-down

Binder	binding result
{6xHis-MBP}-GWYIVFSCILLYVVFQKLSARLRALRQRQLDR (domain or fragment, reading uncertain) [6xHis-MBP-selenos 34–65]	binds
{6xHis-MBP}-SCILLYVVFQKLSARLRALR (domain or fragment, reading uncertain) [6xHis-MBP-selenos 40–59]	binds
{6xHis-MBP}-SCILLYVVFQKLSARLRALRQRQLDR (domain or fragment, reading uncertain) [6xHis-MBP-selenos 40–65]	binds
{6xHis-MBP}-GWYIVFSCILLYVVFQKLSARLRALR (domain or fragment, reading uncertain) [6xHis-MBP-selenos 34–59]	binds
